The results in this text go back to paper doi:10.1101/2025.01.24.634737.

In assay [1] the target is microtubules grown from purified bovine brain tubulin (bovine) (UniProt Q6B856). In words: optical trap rupture force assay; kinetochores purified in the presence of benzonase, on anti-penta-His beads (via Dsn1-6His-3M3DK), attached to the growing tips of coverslip-anchored microtubules; force ramp 0.25 pN/s until detachment; BRB80, 1 mM GTP, 23 °C.
Assay [2] shares this target. As to the kind of experiment: optical trap rupture force assay; untreated purified kinetochores on anti-penta-His beads (via Dsn1-6His-3M3DK), attached to the growing tips of coverslip-anchored microtubules; force ramp 0.25 pN/s until detachment; BRB80, 1 mM GTP, 23 °C.

Chain of UniProt Q6B856 (Q6B856 whole entry, looked up): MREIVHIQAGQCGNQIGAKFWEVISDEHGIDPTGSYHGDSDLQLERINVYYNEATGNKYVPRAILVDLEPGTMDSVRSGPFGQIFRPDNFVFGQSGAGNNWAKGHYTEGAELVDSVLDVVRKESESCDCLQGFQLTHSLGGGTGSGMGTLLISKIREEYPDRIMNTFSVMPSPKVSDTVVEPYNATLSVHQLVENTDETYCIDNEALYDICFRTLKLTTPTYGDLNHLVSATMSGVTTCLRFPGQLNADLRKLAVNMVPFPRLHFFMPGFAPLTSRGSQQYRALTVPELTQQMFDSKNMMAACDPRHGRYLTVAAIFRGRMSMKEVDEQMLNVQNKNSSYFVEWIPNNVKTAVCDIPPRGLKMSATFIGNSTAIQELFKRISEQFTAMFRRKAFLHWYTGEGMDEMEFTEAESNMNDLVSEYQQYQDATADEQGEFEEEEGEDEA

For the substance “native K. marxianus kinetochore particles purified via Dsn1-6His-3M3DK (from UniProt A0ABX6F0Z3 1-547) (complex)”, the values for the median rupture force in assay [1] and in assay [2] were 6.4 pN and 7.5 pN, respectively.

In the case of “native S. cerevisiae kinetochore particles purified via Dsn1-6xHis-3xM3DK (from UniProt P40568 1-576) (complex)”, the median rupture force in assay [2] is 7.2.
